# Assay results from US8236762B2, “Peptide-cytotoxic conjugates” (IPSEN Pharma S.A.S., priority 2006, dated 2012).
# Numbered stars: 1 amine (or outer) side, 2 acyl side, 3 side chain; on linkers, the order of the positions; unused ones are H or OH. Square brackets hold non-standard residues; d marks the D form. Peptide text beside a SMILES is read from it. * marks the point of attachment. Pipz(1-CH2CO,4-CH2CH2NH) = O=C(CN1CCN(CCN[*:1])CC1)[*:2]; X1 = CC[C@@]1(O*)C(=O)OCc2c1cc1n(c2=O)Cc2cc3ccccc3nc2-1; Suc = O=C(CCC(=O)[*:2])[*:1]; Nle = CCCC[C@H](N)C(=O)O; AEEA = NCCOCCOCC(=O)O; Ava = NCCCCC(=O)O; GABA = NCCCC(=O)O; βAla = NCCC(=O)O
# Experiments:
# [1] = Half-life determination in mouse plasma (LC-MS); assay type: in vitro ADME; settings: 37° C.
# Procedure: (§1) Samples containing approximately 50 μg/ml up to and including approximately 500 μg/ml of test compound according to Formula IA or IB or II was added to 450 μl human or mouse plasma, vortexed briefly and incubated at 37° C. At various time intervals, e.g., 0, 0.5, 1, 2, 4, 6, 8, 24, 36 and 48 hours, 50 μl of the compound-plasma mixture was added to 150 μl acetonitrile in a microcentrifuge tube. The mixture was vortexed, centrifuged for 5 minutes at 10K RPM, and 135 μl of supernatant was transferred to an injection vial. The recovered supernatant was analyzed by using a liquid chromatography-mass spectrophotometer system (LC-MS) consisting of a Finnigan Deca XP® mass spectrometer with an ESI probe at the positive ion mode. HPLC separation was carried out on a Luna 3μ C8 (2)® 3×50 mm column with a gradient decreasing from 100% A to 80% B for 10 minutes at a flow rate of 0.25 ml/min. Buffer A was 0.1% acetic acid in water and buffer B was 0.1% acetic acid acetonitrile.
# bombesin/GRP receptor = biological target: T1, bombesin/GRP receptor (Rattus norvegicus, UniProt P52500); assay: Bombesin/GRP radioligand binding (AR42J rat pancreas cell membranes); settings: read-out: Ki bombesin receptor ± (SEM)
# T1 construct: AR42J rat pancreas cells expressing the native bombesin/GRP receptor; endogenous in cells; host or cells: AR42J rat pancreas cells
# T1 sequence (P52500 whole entry): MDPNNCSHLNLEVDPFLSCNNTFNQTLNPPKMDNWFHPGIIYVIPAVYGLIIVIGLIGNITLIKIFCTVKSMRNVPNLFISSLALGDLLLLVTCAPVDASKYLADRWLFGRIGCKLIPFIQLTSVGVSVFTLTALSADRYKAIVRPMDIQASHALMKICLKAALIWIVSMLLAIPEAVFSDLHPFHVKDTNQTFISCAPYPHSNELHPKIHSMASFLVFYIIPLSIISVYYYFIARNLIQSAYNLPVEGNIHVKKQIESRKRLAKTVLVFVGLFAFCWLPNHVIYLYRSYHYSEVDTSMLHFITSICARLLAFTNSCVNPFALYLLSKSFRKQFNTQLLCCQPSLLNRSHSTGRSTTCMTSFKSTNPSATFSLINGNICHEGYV
# Procedure: Membranes were prepared for radioligand binding studies by homogenization of AR42J rat pancreas cells expressing the native bombesin/GRP receptor in 20 ml of ice-cold 50 mM Tris-HCl with a Brinkman Polytron® (Westbury, N.Y., U.S.A.) at settings of 6, 15 seconds. The homogenates were washed twice by centrifugation (39,000 g/10 minutes) and the final pellets were resuspended in 50 mM Tris-HCl containing 2.5 mM MgCl2 and 0.1% BSA. […] The filters were then washed three times with 5-ml aliquots of ice-cold 50 mM Tris-HCl. The bound radioactivity trapped on the filters was counted by gamma spectrometry (Wallac LKB®, Gaithersburg, Md., U.S.A.).
# [2] = Half-life determination in human plasma (LC-MS); assay type: in vitro ADME; settings: 37° C.
# Procedure: as §1
# hSSTR-1 = biological target: T2, hSSTR-1 (Homo sapiens, UniProt P30872); assay: Somatostatin receptor radioligand binding, hSSTR-1 (CHO-K1 membranes); settings: read-out: Ki hSSTR1 ± (SEM)
# T2 construct: expressed in transfected cells; host or cells: CHO-K1
# T2 sequence (P30872 whole entry): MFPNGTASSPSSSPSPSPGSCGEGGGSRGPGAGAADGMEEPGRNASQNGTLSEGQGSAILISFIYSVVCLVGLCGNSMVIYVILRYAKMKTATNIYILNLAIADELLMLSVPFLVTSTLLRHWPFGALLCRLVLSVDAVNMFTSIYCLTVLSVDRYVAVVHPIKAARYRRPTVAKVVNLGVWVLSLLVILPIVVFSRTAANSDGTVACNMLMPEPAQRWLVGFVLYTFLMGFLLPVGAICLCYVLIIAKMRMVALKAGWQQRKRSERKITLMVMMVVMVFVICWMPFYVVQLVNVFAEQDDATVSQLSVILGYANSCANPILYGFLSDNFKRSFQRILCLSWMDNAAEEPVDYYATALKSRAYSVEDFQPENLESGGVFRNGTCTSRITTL
# Procedure: Membranes for in vitro receptor binding assays were obtained by homogenizing (Polytron setting 6, 15 sec) CHO-K1 cells expressing human somatostatin receptor subtypes hSSTR-1, hSSTR-2, hSSTR-3, hSSTR-4 or hSSTR-5 in ice-cold 50 mM Tris-HCl. The homogenized cells were centrifuged twice at 39,000 g for 10 minutes with an intermediate resuspension in fresh buffer. The final pellets were resuspended in 10 mM Tris-HCl to prepare the cell membrane homogenate for use in the binding assay.
# The final assay volume was 0.3 ml.
# The cell membrane homogenate was incubated with the radioligands for 90 minutes at 25° C. The incubations were terminated by rapid filtration through GF/C filters pre-soaked in 0.3% polyethylenimine using a Brandel® filtration manifold (Gaithersberg, Md., U.S.A.). Each tube and filter was washed three times with 5-ml aliquots of ice-cold buffer. Specific binding was defined as the total radioligand bound minus that bound in the presence of 1000 nM SRIF-14 (for hSSTR-1, hSSTR-3, hSSTR-4 or hSSTR-5), or 1000 nM DPhe-c(Cys-Tyr-D-Trp-Lys-Abu-Cys)-Thr-NH2 for hSSTR-2.
# hSSTR-5 = biological target: T3, hSSTR-5 (Homo sapiens, UniProt P35346); assay: Somatostatin receptor radioligand binding, hSSTR-5 (CHO-K1 membranes); settings: read-out: Ki hSSTR5 ± (SEM)
# T3 construct: expressed in transfected cells; host or cells: CHO-K1
# T3 sequence (P35346 whole entry): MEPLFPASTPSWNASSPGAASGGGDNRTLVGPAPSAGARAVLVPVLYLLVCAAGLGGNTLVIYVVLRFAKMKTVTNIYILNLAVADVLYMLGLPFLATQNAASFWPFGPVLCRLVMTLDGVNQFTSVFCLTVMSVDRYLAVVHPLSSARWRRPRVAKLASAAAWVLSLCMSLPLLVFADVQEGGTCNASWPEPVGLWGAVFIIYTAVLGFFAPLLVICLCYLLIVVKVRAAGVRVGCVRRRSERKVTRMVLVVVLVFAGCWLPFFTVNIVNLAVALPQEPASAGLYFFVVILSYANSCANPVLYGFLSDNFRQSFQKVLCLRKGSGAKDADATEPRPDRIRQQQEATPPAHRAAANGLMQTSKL
# Procedure: (§2) For the hSSTR-1, hSSTR-3, and hSSTR-4 assays, aliquots of the membrane preparations were incubated for 90 minutes at 25° C. with 0.05 nM [^125I-Tyr11]SRIF-14 in 50 mM HEPES (pH 7.4) buffer containing 0.2% BSA and 5 mM MgCl2. The final assay volume was 0.3 ml. For the hSSTR-2 and hSSTR-5 assays, [^125I]-[4-(2-hydroxyethyl)]-1-piperazinylacetyl-D-Phe-c(Cys-Tyr-D-Trp-Lys-Abu-Cys)-Thr-NH2 (0.05 nM) and [^125I]-D-Phe-c(Cys-Tyr-D-Trp-Lys-Val-Cys)-Thr-NH2 were employed as the radioligands, respectively.
# hSSTR-4 = biological target: T4, hSSTR-4 (Homo sapiens, UniProt P31391); assay: Somatostatin receptor radioligand binding, hSSTR-4 (CHO-K1 membranes); settings: read-out: Ki hSSTR4 ± (SEM)
# T4 construct: expressed in transfected cells; host or cells: CHO-K1
# T4 sequence (P31391 whole entry): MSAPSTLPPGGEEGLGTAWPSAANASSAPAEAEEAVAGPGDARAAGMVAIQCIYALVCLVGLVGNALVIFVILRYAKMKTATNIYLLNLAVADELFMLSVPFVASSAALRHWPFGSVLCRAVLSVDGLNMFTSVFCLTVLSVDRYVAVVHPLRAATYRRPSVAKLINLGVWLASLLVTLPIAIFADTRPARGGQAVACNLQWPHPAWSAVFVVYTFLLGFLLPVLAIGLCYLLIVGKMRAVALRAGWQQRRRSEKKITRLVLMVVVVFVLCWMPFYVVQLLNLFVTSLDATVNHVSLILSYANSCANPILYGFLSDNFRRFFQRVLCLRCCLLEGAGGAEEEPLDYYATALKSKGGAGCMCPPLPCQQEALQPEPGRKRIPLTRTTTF
# Procedure: as §2
# hSSTR-3 = biological target: T5, hSSTR-3 (Homo sapiens, UniProt P32745); assay: Somatostatin receptor radioligand binding, hSSTR-3 (CHO-K1 membranes); settings: read-out: Ki hSSTR3 ± (SEM)
# T5 construct: expressed in transfected cells; host or cells: CHO-K1
# T5 sequence (P32745 whole entry): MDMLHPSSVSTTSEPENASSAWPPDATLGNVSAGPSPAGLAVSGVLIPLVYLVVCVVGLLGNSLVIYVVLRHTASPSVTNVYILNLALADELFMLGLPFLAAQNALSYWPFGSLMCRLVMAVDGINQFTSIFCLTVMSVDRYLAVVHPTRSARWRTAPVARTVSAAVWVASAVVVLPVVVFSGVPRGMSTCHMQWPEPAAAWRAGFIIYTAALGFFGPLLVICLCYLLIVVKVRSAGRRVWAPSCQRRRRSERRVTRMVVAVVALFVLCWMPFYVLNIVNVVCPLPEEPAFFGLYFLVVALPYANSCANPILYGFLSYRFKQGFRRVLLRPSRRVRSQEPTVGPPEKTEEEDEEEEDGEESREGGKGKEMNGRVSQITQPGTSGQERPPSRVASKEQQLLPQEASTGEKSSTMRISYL
# Procedure: as §2
Compound,half-life [1],Ki (bombesin/GRP receptor),half-life [2],Ki (hSSTR-1),Ki (hSSTR-5),Ki (hSSTR-4),Ki (hSSTR-3)
"CCCC[C@H](NC(=O)[C@H](CC(C)C)NC(=O)[C@H](Cc1c[nH]cn1)NC(=O)CCNC(=O)[C@@H](NC(=O)[C@H](C)NC(=O)[C@H](Cc1c[nH]c2ccccc12)NC(=O)[C@H](CCC(N)=O)NC(=O)[C@@H](Cc1ccc(O)cc1)NC(=O)[C@@H](CO)NC(=O)CN1CCN(CCNC(=O)COCCOCCNC(=O)COCCOCCNC(=O)COCCOCCNC(=O)COCCOCCNC(=O)CCC(=O)NCC(=O)O[C@]2(CC)C(=O)OCc3c2cc2n(c3=O)Cc3cc4ccccc4nc3-2)CC1)C(C)C)C(N)=O [Example 27, Camptothecin-rvGly-Suc-(Doc)4-Aepa-D-Ser-D-Tyr-Gln-Trp-Ala-Val-β-Ala-His-Leu-Nle-NH2] ({X1-Gly-Suc-AEEA-AEEA-AEEA-AEEA}-[Pipz(1-CH2CO,4-CH2CH2NH)][dS][dY]QWAV[βAla]HL[Nle]-NH2)",3.8 h,3.96 nM,4.5 h,,,,
"CC[C@@H]1NC(=O)[C@H](CCCCN)NC(=O)[C@@H](Cc2c[nH]c3ccccc23)NC(=O)[C@H](Cc2ccc(O)cc2)NC(=O)[C@@H](NC(=O)[C@@H](Cc2ccccc2)NC(=O)CN2CCN(CCNC(=O)COCCOCCNC(=O)COCCOCCNC(=O)COCCOCCNC(=O)COCCOCCNC(=O)CCC(=O)NCCCCCCCCC(=O)O[C@]3(CC)C(=O)OCc4c3cc3n(c4=O)Cc4cc5ccccc5nc4-3)CC2)CSSC[C@@H](C(=O)N[C@H](C(N)=O)[C@@H](C)O)NC1=O [Example 17, Camptothecin-rvAnc-Suc-(Doc)4-Aepa-D-Phe-cyclo(Cys-Tyr-D-Trp-Lys-Abu-Cys)-Thr-NH2]",15.6 h,,28.6 h,≥ 1000 nM,≥ 1000 nM,,
"CCCC[C@H](NC(=O)[C@H](CC(C)C)NC(=O)[C@H](Cc1c[nH]cn1)NC(=O)CCNC(=O)[C@@H](NC(=O)[C@H](C)NC(=O)[C@H](Cc1c[nH]c2ccccc12)NC(=O)[C@H](CCC(N)=O)NC(=O)CCCNC(=O)[C@H](CC(C)C)NC(=O)CN1CCN(CCNC(=O)COCCOCCNC(=O)COCCOCCNC(=O)COCCOCCNC(=O)COCCOCCNC(=O)CCC(=O)NCC(=O)O[C@]2(CC)C(=O)OCc3c2cc2n(c3=O)Cc3cc4ccccc4nc3-2)CC1)C(C)C)C(N)=O [Example 22, Camptothecin-rvGly-Suc-(Doc)4-Aepa-Leu-Gaba-Gln-Trp-Ala-Val-β-Ala-His-Leu-Nle-NH2] ({X1-Gly-Suc-AEEA-AEEA-AEEA-AEEA}-[Pipz(1-CH2CO,4-CH2CH2NH)]L[GABA]QWAV[βAla]HL[Nle]-NH2)",2.1 h,18.2 nM,1.8 h,,,,
"CCCC[C@H](NC(=O)[C@H](CC(C)C)NC(=O)[C@H](Cc1c[nH]cn1)NC(=O)CCNC(=O)[C@@H](NC(=O)[C@H](C)NC(=O)[C@H](Cc1c[nH]c2ccccc12)NC(=O)[C@H](CCC(N)=O)NC(=O)[C@H](CC(N)=O)NC(=O)CCCNC(=O)CN1CCN(CCNC(=O)COCCOCCNC(=O)COCCOCCNC(=O)COCCOCCNC(=O)COCCOCCNC(=O)CCC(=O)NCC(=O)O[C@]2(CC)C(=O)OCc3c2cc2n(c3=O)Cc3cc4ccccc4nc3-2)CC1)C(C)C)C(N)=O [Example 23, Camptothecin-rvGly-Suc-(Doc)4-Aepa-Gaba-Asn-Gln-Trp-Ala-Val-β-Ala-His-Leu-Nle-NH2] ({X1-Gly-Suc-AEEA-AEEA-AEEA-AEEA}-[Pipz(1-CH2CO,4-CH2CH2NH)][GABA]NQWAV[βAla]HL[Nle]-NH2)",2.9 h,7.65 nM,4.2 h,,,,
"CC[C@@H]1NC(=O)[C@H](CCCCN)NC(=O)[C@@H](Cc2c[nH]c3ccccc23)NC(=O)[C@H](Cc2ccc(O)cc2)NC(=O)[C@@H](NC(=O)[C@@H](Cc2ccccc2)NC(=O)CN2CCN(CCNC(=O)COCCOCCNC(=O)COCCOCCNC(=O)COCCOCCNC(=O)COCCOCCNC(=O)CCC(=O)N[C@@H](C)C(=O)O[C@]3(CC)C(=O)OCc4c3cc3n(c4=O)Cc4cc5ccccc5nc4-3)CC2)CSSC[C@@H](C(=O)N[C@H](C(N)=O)[C@@H](C)O)NC1=O [Example 14, Camptothecin-rvAla-Suc-(Doc)4-Aepa-D-Phe-c(Cys-Tyr-D-Trp-Lys-Abu-Cys)-Thr-NH2]",4.6 h,,1.3 h,≥ 1000 nM,,≥ 1000 nM,≥ 1000 nM
"CCCC[C@H](NC(=O)[C@H](CC(C)C)NC(=O)[C@H](Cc1c[nH]cn1)NC(=O)CCNC(=O)[C@@H](NC(=O)[C@H](C)NC(=O)[C@H](Cc1c[nH]c2ccccc12)NC(=O)[C@H](CCC(N)=O)NC(=O)CCCCCNC(=O)CN1CCN(CCNC(=O)COCCOCCNC(=O)COCCOCCNC(=O)COCCOCCNC(=O)COCCOCCNC(=O)CCC(=O)NCC(=O)O[C@]2(CC)C(=O)OCc3c2cc2n(c3=O)Cc3cc4ccccc4nc3-2)CC1)C(C)C)C(N)=O [Example 21, Camptothecin-rvGly-Suc-(Doc)4-Aepa-Ahx-Gln-Trp-Ala-Val-β-Ala-His-Leu-Nle-NH2]",5.4 h,1.9 nM,3.2 h,,,,
"CCCC[C@H](NC(=O)[C@H](CC(C)C)NC(=O)[C@H](Cc1c[nH]cn1)NC(=O)CCNC(=O)[C@@H](NC(=O)[C@H](C)NC(=O)[C@H](Cc1c[nH]c2ccccc12)NC(=O)[C@H](CCC(N)=O)NC(=O)[C@H](CCCC)NC(=O)CN1CCN(CCNC(=O)COCCOCCNC(=O)COCCOCCNC(=O)COCCOCCNC(=O)COCCOCCNC(=O)CCC(=O)NCC(=O)O[C@]2(CC)C(=O)OCc3c2cc2n(c3=O)Cc3cc4ccccc4nc3-2)CC1)C(C)C)C(N)=O [Example 20, Camptothecin-rvGly-Suc-(Doc)4-Aepa-Nle-Gln-Trp-Ala-Val-β-Ala-His-Leu-Nle-NH2] ({X1-Gly-Suc-AEEA-AEEA-AEEA-AEEA}-[Pipz(1-CH2CO,4-CH2CH2NH)][Nle]QWAV[βAla]HL[Nle]-NH2)",2.8 h,4.57 nM,4.8 h,,,,
"CC[C@@H]1NC(=O)[C@H](CCCCN)NC(=O)[C@@H](Cc2c[nH]c3ccccc23)NC(=O)[C@H](Cc2ccc(O)cc2)NC(=O)[C@@H](NC(=O)[C@@H](Cc2ccccc2)NC(=O)CN2CCN(CCNC(=O)COCCOCCNC(=O)COCCOCCNC(=O)COCCOCCNC(=O)COCCOCCNC(=O)CCC(=O)N[C@@H](CC3CCCCC3)C(=O)O[C@]3(CC)C(=O)OCc4c3cc3n(c4=O)Cc4cc5ccccc5nc4-3)CC2)CSSC[C@@H](C(=O)N[C@H](C(N)=O)[C@@H](C)O)NC1=O [Example 1, Camptothecin-rvCha-Suc-(Doc)4-Aepa-DPhe-c(Cys-Tyr-DTrp-Lys-Abu-Cys)-Thr-NH2]",2 h,,4.7 h,≥ 1000 nM,,≥ 1000 nM,155 nM
"CCCC[C@H](NC(=O)[C@H](CC(C)C)NC(=O)[C@H](Cc1c[nH]cn1)NC(=O)CCNC(=O)[C@@H](NC(=O)[C@H](C)NC(=O)[C@H](Cc1c[nH]c2ccccc12)NC(=O)[C@H](CCC(N)=O)NC(=O)[C@H](CC(N)=O)NC(=O)CCCCNC(=O)CN1CCN(CCNC(=O)COCCOCCNC(=O)COCCOCCNC(=O)COCCOCCNC(=O)COCCOCCNC(=O)CCC(=O)NCC(=O)O[C@]2(CC)C(=O)OCc3c2cc2n(c3=O)Cc3cc4ccccc4nc3-2)CC1)C(C)C)C(N)=O [Example 24, Camptothecin-rvGly-Suc-(Doc)4-Aepa-Apn-Asn-Gln-Trp-Ala-Val-β-Ala-His-Leu-Nle-NH2] ({X1-Gly-Suc-AEEA-AEEA-AEEA-AEEA}-[Pipz(1-CH2CO,4-CH2CH2NH)][Ava]NQWAV[βAla]HL[Nle]-NH2)",2.6 h,4.07 nM,4.6 h,,,,
